Laboratory results taken from patent US10087260B2, “Anti-HER2 antibody and conjugate thereof” (REMEGEN, LTD., priority 2013, dated 2018).
“Also recorded” adds a separate entry of the source. Square brackets hold non-standard residues; d marks the D form. Peptide text beside a SMILES is read from it. * marks the point of attachment. Dolaproine = CO[C@@H]([C@@H]1CCCN1)[C@@H](C)C(=O)O; Dil = CC[C@H](C)[C@H](NC)[C@@H](CC(=O)O)OC; X1 = C[C@@H](N*)[C@@H](O)c1ccccc1; NMeV = CN[C@H](C(=O)O)C(C)C

What was measured:
[1] = test system: NCI-N87 human gastric cancer; assay: NCI-N87 human gastric cancer nude mouse subcutaneous transplantation tumor model; assay type: in vivo; details: 200 mg/kg, dosing once per week, for 21 days
Experimental: [Worded in the source for another cell line; this cell line is reported under the same test.] (§1) SPF-level BALB/c nude mice were inoculated subcutaneously with a certain amount of BT-474/L1.9 tumor cells, and after the tumor growing to 100-200 mm3, the animals were randomly grouped. […] The tumor volume was measured 2 times a week. […] The data were recorded. The tumor volume and the tumor-inhibition rate of each tumor-bearing mouse were calculated at different observation time points.

[2] = test system: BT-474/L1.9 human breast cancer; assay: Herceptin- and Lapatinib-resistant BT-474/L1.9 nude mouse subcutaneous transplantation tumor model; assay type: in vivo
Experimental: as §1

[3] = test system: chronic non-Hodgkin's lymphocytoma (NHL); details: cited from earlier work
[4] = Toxicity in SD rat, single intravenous infusion; assay type: in vivo
Experimental: SPF-level SD rats (the certificate No. is SCXK (jing)2012-0001) purchased from Beijing Vital River Laboratories Animal Technology Co, Ltd. were randomly divided into 7 groups according to gender, in which there were 10 rats in a group with half male and half female. These 7 groups included physiological saline negative control group, 0.48 mg/kg MMAE control group, 40 mg/kg RC48 naked antibody control group and series of RC48-vc-MMAE dose groups, in which the rats were dosed via tail vein infusion, and the experimental observation period was 21 days. The body weights were weighted at D1 (pre-dosing), D8, D15 and D22. After the observation period, the animals were euthanized and performed a general pathological anatomical observation, and the abnormal tissues or organs observed by the general anatomical observation were subjected to a histological examination.

[5] = test system: recurrent or refractory Hodgkin's lymphoma; details: cited from earlier work
[6] = test system: BT474 human breast cancer transplantation tumor; assay: Tumor inhibition of RC48, BT474 human breast cancer transplantation tumor model; assay type: in vivo, nude mouse; details: 10 mg/kg, administered three times
From the text: Human breast cancer BT474 nude mouse transplantation tumor model was established by inoculating BT474 cells into nude mouse subcutaneously. After growing continuously in vivo for 3 generations, the tumor tissue which grew vigorously was taken and cut into about 1.5 mm3, and inoculated subcutaneously to right-side armpit of nude mouse (provided by Shanghai Slac Laboratory Animal Co. Ltd., with the certificate No. 2007000540582 and license No. SCXK(hu)2012-0002) under sterile conditions. The diameter of the nude mouse transplantation tumor was measured by vernier caliper. The animals were grouped randomly until the tumor grew up to 100˜300 mm3.

[7] = test system: HER2+ cells SK-BR-3, BT474; assay: Flow cytometry binding with HER2 positive breast cancer cells; assay type: cell-based, human; details: 6 μg antibody, SK-BR-3 and BT474
Experimental: (§2) After 2 times of thoroughly washing with 4 ml cold PBS, the antibodies binding with the cell surface were detected by R-PE-coupled goat anti-human IgG Fc specific second antibody (15 μl, 25 μg/mL), and then analyzed by flow cytometer (BD FACSCalibur).

HER2-ECD = biological target: T1, HER2-ECD (Homo sapiens, UniProt P04626); assay: ELISA HER2-ECD binding affinity constant of antibodies; details: ELISA on coated HER2-ECD; average of 3 independent assays
T1 construct: made in house; host or cells: HEK293
Experimental: HER2-ECD as described above was used as the antigen for immunizing the mouse and monoclonal antibody generation. Immunization, hybridoma cells fusion and primary screen were conducted according to standard procedures (reference: WHO Technical Report Series, No. 822, 1992 Annex 3). Four Balb/c mice (commercially obtained from Shanghai Slac Laboratory Animal Co. Ltd.) were immunized with equal volume of well-blended 0.25 ml HER2-ECD protein (50-100 μg) and 0.25 ml Freund's complete adjuvant (Difco Lab). Two weeks later, the second injection was carried out with Freund's incomplete adjuvant (Difco Lab) in which the amount of antigen was 25-50 μg/0.5 ml/mouse. Three weeks later, the third injection was carried out in which the amount was the same with that in the second injection. Ten days after the third injection the blood was drawn. The mice serum were detected by enzyme-linked immunosorbent assay (ELISA), and the spleens of the two mice with highest anti-HER2 antibody titer in serum were taken, which were then fused with the myeloma cell P3X63Ag8 (ATCC CRL-1580). […] Murine-derived anti-HER2 antibody was detected by the goat F(ab′)2 anti-murine IgG Fc specific second antibody coupled with horse radish peroxidase (Invitrogen Inc.).

MDA-MBA468 = assay: Flow cytometry binding with HER2 negative cells; assay type: cell-based, human; details: 6 μg antibody
Experimental: as §2

[8] = test system: BT474 human breast cancer tumor; assay type: in vivo; details: 10 mg/kg, three administrations, 37 days after dosing
Experimental: Five millions of BT474 cells were suspended in PBS, and inoculated to the armpit of BALB/c nude mouse (provided by Shanghai Slac Laboratory Animal Co. Ltd., with the certificate No. 2007000540582 and license No. SCXK(hu)2012-0002). After the tumor was formed, the tumor tissue which grew vigorously was taken and cut into about 1.5 mm^3, and inoculated subcutaneously to the right-side armpit of nude mouse under sterile conditions. The diameter of the nude mouse transplantation tumor was measured by vernier caliper. The animals were grouped randomly until the tumor grew up to 100˜300 mm^3.

HER3 = HER3 (Homo sapiens, UniProt P21860); assay: Antigen binding specificity ELISA; details: 20 ng antigen per well
Experimental: [Worded in the source for another target; used here, by the source, with some conditions changed.] (§3) HER2-ECD as described above was used as the antigen for immunizing the mouse and monoclonal antibody generation. Immunization, hybridoma cells fusion and primary screen were conducted according to standard procedures (reference: WHO Technical Report Series, No. 822, 1992 Annex 3). Four Balb/c mice (commercially obtained from Shanghai Slac Laboratory Animal Co. Ltd.) were immunized with equal volume of well-blended 0.25 ml HER2-ECD protein (50-100 μg) and 0.25 ml Freund's complete adjuvant (Difco Lab). Two weeks later, the second injection was carried out with Freund's incomplete adjuvant (Difco Lab) in which the amount of antigen was 25-50 μg/0.5 ml/mouse. Three weeks later, the third injection was carried out in which the amount was the same with that in the second injection. Ten days after the third injection the blood was drawn. The mice serum were detected by enzyme-linked immunosorbent assay (ELISA), and the spleens of the two mice with highest anti-HER2 antibody titer in serum were taken, which were then fused with the myeloma cell P3X63Ag8 (ATCC CRL-1580). The fused cells were diluted onto ten 96-well plates, and the preliminary screen was carried out through ELISA method depending on the binding capacity with HER2-ECD. In a classical ELISA assay, the Nunc Maxisord 96-well plate was coated with HER2-ECD (0.2-1 μg/ml), and then incubated with gradient diluted mouse serum or hybridoma supernatant (100 μL). Murine-derived anti-HER2 antibody was detected by the goat F(ab′)2 anti-murine IgG Fc specific second antibody coupled with horse radish peroxidase (Invitrogen Inc.).

EGFR = EGFR (Homo sapiens, UniProt P00533); assay: Antigen binding specificity ELISA; details: 20 ng antigen per well
Experimental: [Worded in the source for another target; used here, by the source, with some conditions changed.] as §3

HER4 = HER4 (Homo sapiens, UniProt Q15303); assay: Antigen binding specificity ELISA; details: 20 ng antigen per well
HER4, sequence (Q15303 26-1308, species assumed): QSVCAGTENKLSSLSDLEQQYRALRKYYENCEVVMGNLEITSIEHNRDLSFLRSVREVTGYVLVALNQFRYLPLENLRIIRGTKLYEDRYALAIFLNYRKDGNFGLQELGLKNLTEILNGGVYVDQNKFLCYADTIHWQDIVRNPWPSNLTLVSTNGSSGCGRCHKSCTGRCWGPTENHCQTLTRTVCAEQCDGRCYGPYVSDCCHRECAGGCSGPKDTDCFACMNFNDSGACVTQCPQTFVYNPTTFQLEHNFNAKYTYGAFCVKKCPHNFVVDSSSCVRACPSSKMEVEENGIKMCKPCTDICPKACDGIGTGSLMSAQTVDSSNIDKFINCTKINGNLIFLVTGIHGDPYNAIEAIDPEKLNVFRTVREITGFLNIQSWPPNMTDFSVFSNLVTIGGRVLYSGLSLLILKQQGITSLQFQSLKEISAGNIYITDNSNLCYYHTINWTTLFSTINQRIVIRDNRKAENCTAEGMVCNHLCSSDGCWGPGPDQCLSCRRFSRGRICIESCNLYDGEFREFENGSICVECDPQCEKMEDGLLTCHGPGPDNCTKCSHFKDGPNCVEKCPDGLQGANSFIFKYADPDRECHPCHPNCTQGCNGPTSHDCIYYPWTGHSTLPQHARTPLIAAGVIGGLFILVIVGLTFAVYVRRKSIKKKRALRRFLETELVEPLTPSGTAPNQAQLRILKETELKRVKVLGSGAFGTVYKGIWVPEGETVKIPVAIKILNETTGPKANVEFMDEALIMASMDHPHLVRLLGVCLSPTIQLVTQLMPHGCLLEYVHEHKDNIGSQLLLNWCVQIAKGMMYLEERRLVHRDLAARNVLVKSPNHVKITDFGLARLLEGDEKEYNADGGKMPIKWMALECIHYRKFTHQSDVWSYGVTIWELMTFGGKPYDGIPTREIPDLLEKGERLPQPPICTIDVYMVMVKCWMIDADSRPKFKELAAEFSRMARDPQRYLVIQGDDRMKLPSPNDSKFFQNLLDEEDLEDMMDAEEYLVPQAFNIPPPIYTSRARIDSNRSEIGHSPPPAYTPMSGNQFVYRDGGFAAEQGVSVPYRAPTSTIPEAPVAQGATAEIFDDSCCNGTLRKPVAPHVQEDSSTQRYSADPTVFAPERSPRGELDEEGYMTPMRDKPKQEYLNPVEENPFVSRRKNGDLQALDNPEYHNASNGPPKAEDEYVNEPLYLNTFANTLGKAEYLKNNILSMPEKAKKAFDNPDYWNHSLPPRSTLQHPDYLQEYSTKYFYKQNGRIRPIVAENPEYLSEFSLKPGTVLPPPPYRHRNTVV
Experimental: [Worded in the source for another target; used here, by the source, with some conditions changed.] as §3

HER2 = HER2 (Homo sapiens, UniProt P04626); assay: Antigen binding specificity ELISA; details: 20 ng antigen per well
Experimental: as §3

[9] = biological target: T2, HER2 on BT474 cell surface (Homo sapiens, UniProt P04626); assay: Flow cytometry binding curve with HER2 on BT474 cell surface; details: BT474 cells, antibody titration, read-out: Binding affinity Kd
T2 construct: HER2 which was endogenously expressed in human breast cancer cells; endogenous in cells; host or cells: BT474 human breast cancer cells
Experimental: as §2

## CS(=O)(=O)CCNCc1ccc(-c2ccc3ncnc(Nc4ccc(OCc5cccc(F)c5)c(Cl)c4)c3c2)o1 [Lapatinib]
[1]
  tumor-inhibition rate: 78%
[2]; 200 mg/kg, dosing everyday
  tumor-inhibition rate: 45%

## Rituxan: monoclonal antibody drug against lymphocytoma such as NHL
[3]; Phase II clinical study, NHL, used alone
  total response rate: 6%
[3]; in combination with standard chemotherapy, chronic lymphocytoma
  effective rate: up to 90%

## CC[C@H](C)[C@@H]([C@@H](CC(=O)N1CCC[C@H]1[C@H](OC)[C@@H](C)C(=O)N[C@H](C)[C@@H](O)c1ccccc1)OC)N(C)C(=O)[C@@H](NC(=O)[C@@H](NC)C(C)C)C(C)C [MMAE, Monomethyl auristatin E, reference compound] (H-[NMeV]V[Dil][Dolaproine]-X1)
[4]; 0.48 mg/kg MMAE control group, single tail vein infusion, 21 days
  animals found dead during the experiment: 9/10

## brentuximab vedotin
[5]; Phase II, 102 patients
  patients achieving partial response: 40%
[5]; median treatment course 6.7 months
  overall response rate: 73%
[5]; median treatment course 20.5 months
  complete response rate: 34%

## T-DM1
[2]; 5 mg/kg, once per week, totally 2 times
  tumor-inhibition rate: 58%

B1: RC48: humanized anti-HER2 antibody RC48, derived from mRC48 antibody by humanized engineering; human IgG1κ (antibody, chains of the INN, looked up, V domains shown)
VH: EVQLVQSGAEVKKPGATVKISCKVSGYTFTDYYIHWVQQAPGKGLEWMGRVNPDHGDSYYNQKFKDKATITADKSTDTAYMELSSLRSEDTAVYFCARNYLFDHWGQGTLVTVSS
VL: DIQMTQSPSSVSASVGDRVTITCKASQDVGTAVAWYQQKPGKAPKLLIYWASIRHTGVPSRFSGSGSGTDFTLTISSLQPEDFATYYCHQFATYTFGGGTKVEIK
[6]
  tumor-inhibitory effect on BT474 tumors: inhibited; also recorded: significantly better tumor-inhibitory effect
[7]
  binding with HER2 positive cells: strong binding; also recorded: higher binding affinity
HER2-ECD
  Kd: 0.044 nM
MDA-MBA468
  binding with HER2 negative cells: no binding
[4]; 40 mg/kg, single intravenous infusion
  toxicity response symptom: no evident toxicity response symptom
[4]; single intravenous infusion
  maximal tolerant dose of rat: ≥ 40 mg/kg
[8]
  tumor volume as % of the control group: 83%
HER3
  binding capacity with HER3: nearly had no binding capacity; also recorded: not with EGFR, HER3 and HER4
EGFR
  binding capacity with EGFR: nearly had no binding capacity; also recorded: not with EGFR, HER3 and HER4
HER4
  binding capacity with HER4: nearly had no binding capacity; also recorded: not with EGFR, HER3 and HER4
HER2
  binding capacity with HER2: strong binding capacity; also recorded: only shows specific binding affinity with HER2
[9]
  Kd: 4 nM
